Assay type in all cases: biochemical
The target in one assay is T1, Aggrecanase-1 (Homo sapiens, UniProt O75173).
T1 construct: made in house; host or cells: Sf9 cells (baculovirus, pFastBac1)
T1 sequence (O75173 213-437): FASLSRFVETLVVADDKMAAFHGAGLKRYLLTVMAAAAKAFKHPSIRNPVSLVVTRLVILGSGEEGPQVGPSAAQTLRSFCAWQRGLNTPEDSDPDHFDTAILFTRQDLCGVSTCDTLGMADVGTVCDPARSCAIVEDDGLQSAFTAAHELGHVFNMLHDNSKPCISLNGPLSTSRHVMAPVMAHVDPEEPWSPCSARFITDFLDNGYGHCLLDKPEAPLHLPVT
In words: Drug screening assay, aggrecanase-1 FasL1 FRET peptide cleavage. The following applies: inhibitor 7.5 micromolar, FasL1 225 μM, 200 minutes at room temperature. As to the method:
Aggrecanase-1 ([…] of protein, 85 to 167 picomoles) was diluted in assay buffer (50 mM HEPES pH 7.5, 10 mM CaCl2, 0.1M NaCl, 0.05% Brij-35). Samples were prepared containing putative inhibitors A (Chen et al. Biorg. Med. Chem. Lett. 6(13):1601-1606, 1996) or B (Bailey, et al. Biorg. Med. Chem. Lett. 9(21):3165-3170, 1999), shown below, at a final concentration of 7.5 micromolar. The final % DMSO in the assay was 3% and it was determined experimentally that this concentration was not detrimental to the activity of the enzyme. The reaction was initiated by the addition of FasL1 peptide substrate to a final concentration of 225 μM and readings were taken at one-minute intervals, for a total of 200 minutes at room temperature.
The assay was always performed at enzyme and substrate concentrations where the activity was linearly related to enzyme concentration and where the increase in fluorescence (reaction rate) was linear for at least the time of the assay. From FIG. 4A, it can be seen that for kinetic analysis, the signal-to-noise ratio is effectively infinite, as no change in the background (blank, no enzyme) is observed over the time of the assay. For endpoint measurements, the enzyme and substrate concentrations could be adjusted to achieve the desired signal-to-noise ratio. […]

Assay [1] concerns the target T2, aggrecanase-2 (Homo sapiens, UniProt Q9UNA0).
T2 construct: made in house; host or cells: Sf9 cells (baculovirus, pFastBac1)
T2 sequence (Q9UNA0 262-482): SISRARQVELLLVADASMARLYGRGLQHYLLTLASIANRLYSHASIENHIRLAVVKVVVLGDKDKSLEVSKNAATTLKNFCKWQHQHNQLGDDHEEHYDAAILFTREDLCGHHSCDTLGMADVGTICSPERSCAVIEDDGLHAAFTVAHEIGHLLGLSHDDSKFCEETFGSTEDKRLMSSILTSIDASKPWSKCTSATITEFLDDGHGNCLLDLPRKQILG
In words: IC50 analysis for inhibition of aggrecanase-2, FasL1 FRET peptide cleavage. The note with it: FasL1 225 μM, 60 minutes at room temperature, inhibitor 0.1 to 12.5 μM. The protocol:
Aggrecanase-2 (0.5 to 1 μg of protein, 17 to 33 picomoles) was diluted in assay buffer (50 mM HEPES pH 7.5, 10 mM CaCl2, 0.1M NaCl, 0.05% Brij-35). Samples were prepared containing Inhibitor A, B or C (shown above) at final concentrations ranging from 0.1 to 12.5 μM (final DMSO concentration of 1.5%). Duplicate assays were run for each concentration of Inhibitor A, B and C (purchased from Peptides International, TAPI-0, Cat. No. INH 3850-P1) for 60 minutes at room temperature. The reaction was initiated by the addition of FasL1 peptide substrate to a final concentration of 225 μM. The reaction rates over 60 minutes at room temperature, in the absence (control) and presence of various concentrations of the inhibitor, were determined by linear regression of the data points. The reaction rate data in FIG. 4B were fitted by non-linear regression using the program Grafit (Erithacus Software).

Assay [2] has as its target T2, aggrecanase-2. In words: Kinetic analysis of aggrecanase-2 peptide cleavage (Km, Vm). The following applies: aggrecanase-2, 60 minutes at room temperature, non-linear fitting; for Vm: rfu = relative fluorescence units. The protocol: To confirm the screening assay, aggrecanase-2 was further analyzed for its rate of catalysis using 2 different peptides. The assay was performed by diluting the aggrecanase-2 in assay buffer (50 mM HEPES pH 7.5, 10 mM CaCl2, 0.1M NaCl and 0.05% Brij-35). […] The assay was run for 60 minutes at room temperature. FIG. 3 illustrates the proteolytic activity (in relative fluorescence units per minute) as a function of peptide concentration for peptides FasL1 and 29CD23. The curves were fitted to the data with the program Grafit (Erithacus Software Lmited). The Vmax and Km for each substrate were calculated by non-linear fitting of the data. The cleavage site for aggrecanase-2 within each peptide was determined by LC-MS analysis to be between a glutamic acid and leucine residues in each case, as indicated in Table 2 by a carot within each peptide sequence. […] However, these are clearly not the only requirements for efficient cleavage, as a number of the 56 peptides tested have similar residues and were not cleaved by the aggrecanases.

The next assay addresses T3, truncated aggrecanase-2 (Homo sapiens, UniProt Q9UNA0).
T3 construct: made in house; host or cells: Sf9 cells (baculovirus, pFastBac1)
T3 sequence (Q9UNA0 262-482): T2 sequence (Q9UNA0 262-482)
Kind of assay: FRET peptide substrate screening, truncated aggrecanase-2. The following applies: peptide 50 uM, 60 minutes at room temperature. The text has this: (§1) Fifty-six different peptides were synthesized to test for protease activity (see Table 3 below). The peptides included a collection of substrates for other proteases, as well as a number of sequences corresponding to membrane proximal cleavage sites of various proteins postulated to be released by metalloproteases (including those published by (Roghani et al., J. Biol. Chem. 274:3531-340, 1999) for ADAM9/MDC9). In order to use the principle of fluorescence resonance energy transfer, or FRET, the peptides were labeled at the C-terminus with Dabcyl and at the N-terminus with Aedans (or vice versa). Thus cleavage of the peptides was monitored by the increase in Aedans fluorescence at 460 nm (excitation 360 nm) as a result of the decrease in proximity of the Dabcyl quencher. The assay was performed by diluting the truncated aggrecanase-1 (approximately 2.5 to 5 μg of protein, 85 to 167 picomoles, SEQ ID NO:8) or truncated aggrecanase-2 (approximately 0.5 to 1 μg of protein, 17 to 33 picomoles, SEQ ID NO:9), in assay buffer (50 mM HEPES pH 7.5, 10 mM CaCl2, 0.1M NaCl and 0.05% (w/v) Brij-35 detergent (Sigma).
The reaction was initiated by the addition of peptide substrate to a final concentration of 100 uM for truncated aggrecanase-1 and 50 uM for truncated aggrecanase-2. The assays were typically run for 60 minutes at room temperature and the slope of the kinetic increase in fluorescence was determined to calculate the rate of the reaction.
FIG. 2 illustrates the relative activities for the 56 different peptides, A1 to H7 (only every alternate peptide is numbered in FIG. 2) expressed in arbitrary, but relative units. […] Peptide D7 (16 amino acids) corresponds to the sequence within aggrecan containing the Glu373-Ala374 aggrecanase cleavage site.

A further assay has as its target T4, truncated aggrecanase-1 (Homo sapiens, UniProt O75173).
T4 construct: made in house; host or cells: Sf9 cells (baculovirus, pFastBac1)
T4 sequence (O75173 213-437): T1 sequence (O75173 213-437)
Kind of assay: FRET peptide substrate screening, truncated aggrecanase-1. The note with it: peptide 100 uM, 60 minutes at room temperature.
From the text: as §1, with “The assay was performed by diluting the truncated aggrecanase-1 (approximately 2.5 to 5 μg of protein, 85 to 167 picomoles, SEQ ID NO:8) or truncated aggrecanase-2 (approximately 0.5 to 1 μg of protein, 17 to 33 picomoles, SEQ ID NO:9), in assay buffer (50 mM HEPES pH 7.5, 10 mM CaCl2, 0.1M NaCl and 0.05% (w/v) Brij-35 detergent (Sigma).” left out
The reaction was initiated by the addition of peptide substrate to a final concentration of 100 uM for truncated aggrecanase-1 and 50 uM for truncated aggrecanase-2. The assays were typically run for 60 minutes at room temperature and the slope of the kinetic increase in fluorescence was determined to calculate the rate of the reaction. […]

Another assay has as its target T5, MMP7 (Homo sapiens, UniProt P09237).
T5 construct: purchased Chemicon CC1059
T5 sequence (P09237 95-267): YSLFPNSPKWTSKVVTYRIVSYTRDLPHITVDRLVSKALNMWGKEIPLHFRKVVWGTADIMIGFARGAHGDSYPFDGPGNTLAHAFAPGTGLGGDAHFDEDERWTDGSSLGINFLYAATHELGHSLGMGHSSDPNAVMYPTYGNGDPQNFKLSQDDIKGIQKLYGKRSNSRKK
In words: Similar peptide substrate screening assay with MMP7. The following applies: similar screening assays.

For the next assay, the target named is T6, MMP13 (Homo sapiens, UniProt P45452).
T6 construct: purchased Chemicon CC068
Kind of assay: Similar peptide substrate screening assay with MMP13. The note with it: similar screening assays.

The results in this text go back to patent US7312045B2, “Aggrecanase-1 and -2 peptide substrates and methods” (Ortho-McNeil Pharmaceutical, Inc., priority 2002, dated 2007).

Primed or numbered codes have the meaning given here. No end group written: not given here. *: point of attachment. Dabcyl′ = CN(C)c1ccc(/N=N/c2ccc(C(=O)*)cc2)cc1

A word on the IC50: it is the concentration at which inhibition is half-maximal. A high value points to a need for much substance. With `CC(C)C[C@@H](CC(=O)NO)C(=O)N[C@@H](CC(C)C)c1ncc(-c2ccccc2)[nH]1` [Inhibitor A], the “inhibition of aggrecanase-1 enzyme activity (FIG. 4A)” value against Aggrecanase-1 is on record as “completely inhibited”. In addition, the IC50 against aggrecanase-2 [1] was 118 ± 5 nM.
Regarding `CC(C)(C)C(NC(=O)C(Cc1ccc2ccccc2c1)[C@H](O)C(=O)NO)C(N)=O` (stereo partly shown) [Inhibitor B], the “inhibition of aggrecanase-1 enzyme activity (FIG. 4A)” value against Aggrecanase-1 is “completely inhibited”. The IC50 at aggrecanase-2 [1] was 38 ± 8 nM.
`CC(C)C[C@@H](CC(=O)NO)C(=O)N[C@@H](Cc1ccc2ccccc2c1)C(=O)N[C@@H](C)C(N)=O` [Inhibitor C, TAPI-0] had an IC50 on aggrecanase-2 [1] of 102 ± 23 nM.
For orientation: Km means the substrate concentration at which the rate is half of its maximum. As for “(Aedans)EADLSSFKSQEL(Dabcyl)K-amide (EADLSSFKSQELK(Dabcyl′)-NH2; not fully specified (residue 1, N-terminus); printed as (Aedans)EADLSSFKSQEL(Dabcyl)K-amide; also: Aedans label on N-terminal Glu (N-terminus or side chain not given here)) [Peptide 29CD23]”, in the assay with aggrecanase-2 [2], the Km came to 40 µM and the Vm was determined as 0.6 rfu/min. In the assay with truncated aggrecanase-2, the “relative activity of truncated aggrecanase-2 for the peptide (FIG. 2)” value is on record as “high activity”.
“(Aedans)EKELAELRESTS(Dabcyl)K-amide (EKELAELRESTSK(Dabcyl′)-NH2; not fully specified (residue 1, N-terminus); printed as (Aedans)EKELAELRESTS(Dabcyl)K-amide; also: Aedans label on N-terminal Glu (N-terminus or side chain not given here)) [FasL1]”: in the assay with aggrecanase-2 [2], the Km came out at 80 µM and the Vm was determined as 2.8 rfu/min. The “relative activity of truncated aggrecanase-1 for the peptide (FIG. 2)” value in the assay with truncated aggrecanase-1 was “highest activity”. Also, in the assay with MMP7, the “suitability as substrate for MMP7” value was “suitable substrate”. For the same compound, the “relative activity of truncated aggrecanase-2 for the peptide (FIG. 2)” value with truncated aggrecanase-2 was “highest activity”. In addition, the “suitability as substrate for MMP13” value with MMP13 is reported as “suitable substrate”.
“(Aedans)ERNITEGEARGSVIL(Dabcyl)K-amide (ERNITEGEARGSVILK(Dabcyl′)-NH2; not fully specified (residue 1, N-terminus); printed as (Aedans)ERNITEGEARGSVIL(Dabcyl)K-amide; also: Aedans label on N-terminal Glu (N-terminus or side chain not given here)) [Peptide D7]”: the “relative activity of truncated aggrecanase-1 for the peptide (FIG. 2)” value with truncated aggrecanase-1 is “Neither truncated aggrecanase-1 nor truncated aggrecanase-2 showed any activity”. For the same compound, the “relative activity of truncated aggrecanase-2 for the peptide (FIG. 2)” value with truncated aggrecanase-2 is listed as “Neither truncated aggrecanase-1 nor truncated aggrecanase-2 showed any activity”.
